From patent US20150368338A1 (Janssen / Centocor, published 2015)

T1: IFN-αF (human, UniProt P01568 24-189)
T1 construct: also called IFN-α21; alpha F
T1 chain: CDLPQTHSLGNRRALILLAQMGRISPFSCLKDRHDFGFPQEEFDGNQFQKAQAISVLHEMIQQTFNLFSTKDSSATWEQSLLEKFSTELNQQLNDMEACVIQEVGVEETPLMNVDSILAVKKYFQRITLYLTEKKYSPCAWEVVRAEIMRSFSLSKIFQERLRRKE


How the values were obtained:
Experiment in all cases: ProteOn, one antigen concentration
[1] = target: T2, IFN-αG (human, UniProt P01569 24-189)
T2 construct: also called IFN-α5; alpha G

[2] = target: T3, IFN-αC (human, UniProt P01566 24-189)
T3 construct: also called IFN-α10; alpha C

[3] = target: T1, IFN-αF
[4] = target: T4, IFN-αJ1 (human, UniProt P01567 24-189)
T4 construct: also called IFN-α7; alpha J1

[5] = target: T5, human IFN-ω (human, UniProt P05000 24-195)
T5 construct: also called interferon omega

[6] = target: T6, IFN-αWA (human, UniProt P05015 24-189)
T6 construct: also called IFN-α16; alpha WA

[7] = target: T7, IFN-α4a (human, UniProt P05014 24-189)
T7 construct: also called IFN-αM1

Row | Binder | Kd [1] | Kd [2] | Kd [3] | Kd [4] | Kd [5] | Kd [6] | Kd [7]
1 | IFWM371 (antibody, V domains shown, VH IFWH591, VL PH9L4; parental mAb, IgG1/kappa; also called IFWB351) VH: EVQLVQSGAEVKKPGESLKISCKGSGYSFTSYWIGWVRQMPGKGLEWMGIIDPSDSDTRYSPSFQGQVTISADKSISTAYLQWSSLKASDTAMYYCARHPGLNWAPDFDYWGQGTLVTVSS VL: not shown | 0.263 nM | 0.865 nM | 0.775 nM | 4.23 nM | 1.06 nM | 1.39 nM | 
2 | IFWM3356 (antibody, V domains shown, VH IFWH624, VL IFWL1026; converted mAb; also called IFWB3091) VH: EVQLVQSGAEVKKPGESLKISCKGSGYSFTSYWIGWVRQMPGKGLEWMGIIDPSDSDTAYSPSFQGQVTISADKSISTAYLQWSSLKASDTAMYYCARHPGLNWAPDFDYWGQGTLVTVSS VL: DIQMTQSPSSLSASVGDRVTITCRASQSISKFLNWYQQKPGKAPKLLIYFASSLQSGVPSRFSGSGSGTDFTLTISSLQPEDFATYYCQQSYDFPITFGQGTKVEIK |  |  |  |  | 0.274 nM |  | 
3 | IFWM3302 (antibody, V domains shown, VH IFWH591, VL IFWL991; converted mAb; also called IFWB3037) VH: EVQLVQSGAEVKKPGESLKISCKGSGYSFTSYWIGWVRQMPGKGLEWMGIIDPSDSDTRYSPSFQGQVTISADKSISTAYLQWSSLKASDTAMYYCARHPGLNWAPDFDYWGQGTLVTVSS VL: DIQMTQSPSSLSASVGDRVTITCRASQSINRFLNWYQQKPGKAPKLLIYAASSLQSGVPSRFSGSGSGTDFTLTISSLQPEDFATYYCQQAIDLPFTFGQGTKVEIK | 0.098 nM | 0.083 nM | 0.072 nM | 0.231 nM | 0.052 nM | 0.168 nM | 0.268 nM
4 | IFWM3307 (antibody, V domains shown, VH IFWH591, VL IFWL1001; converted mAb; also called IFWB3042) VH: EVQLVQSGAEVKKPGESLKISCKGSGYSFTSYWIGWVRQMPGKGLEWMGIIDPSDSDTRYSPSFQGQVTISADKSISTAYLQWSSLKASDTAMYYCARHPGLNWAPDFDYWGQGTLVTVSS VL: DIQMTQSPSSLSASVGDRVTITCRASQSIGDFLNWYQQKPGKAPKLLIYFASSLQSGVPSRFSGSGSGTDFTLTISSLQPEDFATYYCQQALDFPLTFGQGTKVEIK | 0.058 nM | 0.062 nM |  | 0.305 nM | 0.046 nM | 0.162 nM | 0.426 nM
5 | IFWM3304 (antibody, V domains shown, VH IFWH591, VL IFWL997; converted mAb; also called IFWB3039) VH: EVQLVQSGAEVKKPGESLKISCKGSGYSFTSYWIGWVRQMPGKGLEWMGIIDPSDSDTRYSPSFQGQVTISADKSISTAYLQWSSLKASDTAMYYCARHPGLNWAPDFDYWGQGTLVTVSS VL: DIQMTQSPSSLSASVGDRVTITCRASQSIGSALNWYQQKPGKAPKLLIYFASSLQSGVPSRFSGSGSGTDFTLTISSLQPEDFATYYCQQSYDFPLTFGQGTKVEIK | 0.037 nM | 0.026 nM | 0.032 nM | 0.053 nM | 0.032 nM | 0.092 nM | 0.12 nM
6 | IFWM3323 (antibody, V domains shown, VH IFWH591, VL IFWL1053; converted mAb; also called IFWB3058) VH: EVQLVQSGAEVKKPGESLKISCKGSGYSFTSYWIGWVRQMPGKGLEWMGIIDPSDSDTRYSPSFQGQVTISADKSISTAYLQWSSLKASDTAMYYCARHPGLNWAPDFDYWGQGTLVTVSS VL: DIQMTQSPSSLSASVGDRVTITCRASQSITNHLNWYQQKPGKAPKLLIYFASSLQSGVPSRFSGSGSGTDFTLTISSLQPEDFATYYCQQAHNFPLTFGQGTKVEIK | 0.094 nM |  | 0.048 nM | 0.144 nM | 0.073 nM | 0.121 nM | 0.337 nM
7 | IFWM3291 (antibody, V domains shown, VH IFWH591, VL IFWL999; converted mAb; also called IFWB3026) VH: EVQLVQSGAEVKKPGESLKISCKGSGYSFTSYWIGWVRQMPGKGLEWMGIIDPSDSDTRYSPSFQGQVTISADKSISTAYLQWSSLKASDTAMYYCARHPGLNWAPDFDYWGQGTLVTVSS VL: DIQMTQSPSSLSASVGDRVTITCRASQSIDEFLNWYQQKPGKAPKLLIYFASSLQSGVPSRFSGSGSGTDFTLTISSLQPEDFATYYCQQAHSFPLTFGQGTKVEIK | 0.067 nM | 0.045 nM | 0.051 nM | 0.122 nM | 0.028 nM | 0.125 nM | 0.317 nM
8 | IFWM3313 (antibody, V domains shown, VH IFWH591, VL IFWL1013; converted mAb; also called IFWB3048) VH: EVQLVQSGAEVKKPGESLKISCKGSGYSFTSYWIGWVRQMPGKGLEWMGIIDPSDSDTRYSPSFQGQVTISADKSISTAYLQWSSLKASDTAMYYCARHPGLNWAPDFDYWGQGTLVTVSS VL: DIQMTQSPSSLSASVGDRVTITCRASQSINNFLNWYQQKPGKAPKLLIYFASSLQSGVPSRFSGSGSGTDFTLTISSLQPEDFATYYCQQSFNLPITFGQGTKVEIK | 0.118 nM |  | 0.084 nM | 0.221 nM | 0.056 nM | 0.155 nM | 0.354 nM
9 | IFWM3305 (antibody, V domains shown, VH IFWH591, VL IFWL998; converted mAb; also called IFWB3040) VH: EVQLVQSGAEVKKPGESLKISCKGSGYSFTSYWIGWVRQMPGKGLEWMGIIDPSDSDTRYSPSFQGQVTISADKSISTAYLQWSSLKASDTAMYYCARHPGLNWAPDFDYWGQGTLVTVSS VL: DIQMTQSPSSLSASVGDRVTITCRASQSISKFLNWYQQKPGKAPKLLIYFASSLQSGVPSRFSGSGSGTDFTLTISSLQPEDFATYYCQQSNTLPFTFGQGTKVEIK | 0.127 nM | 0.114 nM | 0.113 nM | 0.154 nM | 0.031 nM | 0.201 nM | 0.223 nM

The next binders have a lower Kd [5] than those just listed; values first:

Row | Kd [1] | Kd [2] | Kd [3] | Kd [4] | Kd [5] | Kd [6] | Kd [7] | Binder
10 | 0.049 nM | 0.123 nM | 0.098 nM | 0.295 nM | 0.018 nM | 0.072 nM | 0.613 nM | IFWM3292 (antibody, V domains shown, VH IFWH624, VL IFWL999; converted mAb; also called IFWB3027) VH: EVQLVQSGAEVKKPGESLKISCKGSGYSFTSYWIGWVRQMPGKGLEWMGIIDPSDSDTAYSPSFQGQVTISADKSISTAYLQWSSLKASDTAMYYCARHPGLNWAPDFDYWGQGTLVTVSS VL: DIQMTQSPSSLSASVGDRVTITCRASQSIDEFLNWYQQKPGKAPKLLIYFASSLQSGVPSRFSGSGSGTDFTLTISSLQPEDFATYYCQQAHSFPLTFGQGTKVEIK
11 | 0.029 nM | 0.024 nM | 0.029 nM | 0.074 nM | 0.018 nM | 0.079 nM | 0.146 nM | IFWM3301 (antibody, V domains shown, VH IFWH591, VL IFWL983; converted mAb; also called IFWB3036) VH: EVQLVQSGAEVKKPGESLKISCKGSGYSFTSYWIGWVRQMPGKGLEWMGIIDPSDSDTRYSPSFQGQVTISADKSISTAYLQWSSLKASDTAMYYCARHPGLNWAPDFDYWGQGTLVTVSS VL: DIQMTQSPSSLSASVGDRVTITCRASQSIDGSLNWYQQKPGKAPKLLIYFASSLQSGVPSRFSGSGSGTDFTLTISSLQPEDFATYYCQQSYDFPLTFGQGTKVEIK
12 | 0.013 nM |  | 0.02 nM | 0.068 nM | 0.013 nM | 0.038 nM | 0.144 nM | IFWM3312 (antibody, V domains shown, VH IFWH591, VL IFWL1010; converted mAb; also called IFWB3047) VH: EVQLVQSGAEVKKPGESLKISCKGSGYSFTSYWIGWVRQMPGKGLEWMGIIDPSDSDTRYSPSFQGQVTISADKSISTAYLQWSSLKASDTAMYYCARHPGLNWAPDFDYWGQGTLVTVSS VL: DIQMTQSPSSLSASVGDRVTITCRASQSIDGALNWYQQKPGKAPKLLIYFASSLQSGVPSRFSGSGSGTDFTLTISSLQPEDFATYYCQQSFDFPLTFGQGTKVEIK
13 | 0.082 nM | 0.079 nM | 0.134 nM | 0.157 nM | 0.013 nM | 0.168 nM | 0.299 nM | IFWM3303 (antibody, V domains shown, VH IFWH591, VL IFWL992; converted mAb; also called IFWB3038) VH: EVQLVQSGAEVKKPGESLKISCKGSGYSFTSYWIGWVRQMPGKGLEWMGIIDPSDSDTRYSPSFQGQVTISADKSISTAYLQWSSLKASDTAMYYCARHPGLNWAPDFDYWGQGTLVTVSS VL: DIQMTQSPSSLSASVGDRVTITCRASQSIGSFLNWYQQKPGKAPKLLIYFASSLQSGVPSRFSGSGSGTDFTLTISSLQPEDFATYYCQQSYSIPITFGQGTKVEIK
